Results reported in patent US5811298, “Rep-max protein having anti-oncogenic activity and uses thereof” (Albert Einstein College of Medicine of Yeshiva University, …, dated 1998).

Biological target: mouse c-Myc (mouse, UniProt P01108-2)
Assay: cell-based or functional assay

Row | Binder | fold suppression of c-myc/RAS foci formation, REF cooperation assay
1 | mouse Mxi-SR protein (other) MERVRMINVQRLLEAAEFLERRERECEHGYASSFPSMPSPRLQHSKPPRRLSRAQKHSSGSSNTSTANRSTHNELEKNRRAHLRLCLKRLKVLIPLGPDCTRHTTLGLLNKAKAHIKKLEEAERKSQHQLENLEREQRFLKRRLEQLQGPQEMERIRMDSIGSTISSDRSDSEREEIEVDVESTEFSHGKADSVSTTSISDLDDHSSLQSVGSDEGYSSASVKLSFAS | 8.1 fold suppression
2 | mouse Mxi-SR-pro (other) MERVRMINVQRLLEAAEFPERRERECEHGYASSFPSMPSPRLQHSKPPRRLSRAQKHSSGSSNTSTANRSTHNELEKNRRAHLRLCLKRLKVLIPLGPDCTRHTTLGLLNKAKAHIKKLEEAERKSQHQLENLEREQRFLKRRLEQLQGPQEMERIRMDSIGSTISSDRSDSEREEIEVDVESTEFSHGKADSVSTTSISDLDDHSSLQSVGSDEGYSSASVKLSFAS | 1.78 fold suppression
3 | mouse Mxi-WR protein (other) MPSPRLQHSKPPRRLSRAQKHSSGSSNTSTANRSTHNELEKNRRAHLRLCLKRLKVLIPLGPDCTRHTTLGLLNKAKAHIKKLEEAERKSQHQLENLEREQRFLKRRLEQLQGPQEMERIRMDSIGSTISSDRSDSEREEIEVDVESTEFSHGKADSVSTTSISDLDDHSSLQSVGSDEGYSSASVKLSFAS | 1.74 fold suppression

Further lines, results first:

Row | fold suppression of c-myc/RAS foci formation, REF cooperation assay | Binder
4 | 5.3 fold suppression | human MXI protein (other) MERVKMINVQRLLEAAEFLERRERECEHGYASSFPSMPSPRLQHSKPPRRLSRAQKHSSGSSNTSTANRSTHNELEKNRRAHLRLCLKRLKVLIPLGPDCTRHTTLGLLNKAKAHIKKLEEAERKSQHQLENLEREQRFLKWRLEQLQGPQEMERIRMDSIGSTISSDRSDSEREEIEVDVESTEFSHGKVDNISTTSISDIDDHSSLPSIGSDEGYSSASVKLSFTS
5 | 1.57 fold suppression | mouse Mxi-Δrep (other) MERFPSMPSPRLQHSKPPRRLSRAQKHSSGSSNTSTANRSTHNELEKNRRAHLRLCLKRLKVLIPLGPDCTRHTTLGLLNKAKAHIKKLEEAERKSQHQLENLEREQRFLKRRLEQLQGPQEMERIRMDSIGSTISSDRSDSEREEIEVDVESTEFSHGKADSVSTTSISDLDDHSSLQSVGSDEGYSSASVKLSFAS
